According to the supplement of paper PMC12042874:
± gives the uncertainty stated by the source.

Test: amyloid nucleation score (Sup35N fusion, yeast selection) (log enrichment); library NNK3; higher = more nucleation; inactive = no reads after selection
How it was run: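 In psi-negative yeast, Sup35N fusions carrying peptides of 20 random codons were induced with 100 μM copper sulfate for 24 hours. The cells then grew 7 days at 30°C on medium lacking adenine and uracil, and plasmid inserts from input and output were Illumina-sequenced, excluding sequences with under 100 input reads. Nucleation score is the DiMSum log enrichment of output over input reads, centred on the mode score of non-aggregating sequences.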

| Substance | amyloid nucleation score |
| --- | --- |
| CHMCVVLAV | inactive |
| CICKFTDLMHTGACLNILSR | 1.58 ± 0.11 |
| CIGIYFLIRGTYILIVFSL | -0.607 ± 1 |
| CIKIIIFNVERLVALIIVSL | inactive |
| CILKHSGR | inactive |
| CINIGVMDEWGVAVTLLVKN | inactive |
| CIPIMRTPLGTPSN | inactive |
| CIRLRKANINRKDQKRGCMV | inactive |
| CIWHLHLLFLEGVYV | inactive |
| CKAESLWFNGLF | inactive |
| CKEHLHQLFMGRCSTV | inactive |
| CKGLIFISSFANVVLN | 1.52 ± 0.12 |
| CKLNICRNVEETTIFRLGDV | 1.39 ± 0.11 |
| CKLRLWSEFSLVTSRSIYIA | inactive |
| CKSNKCSAVMVLVA | inactive |
| CKSSWDVVMSSVSDWFWDGA | inactive |
| CLDHIAPKRKIQEVGLS | inactive |
| CLFCSALEL | 1.99 ± 0.072 |
| CLIFVWATIDYNYFCLS | 0.6 ± 0.16 |
| CLILSWYKYCSRGEMMHMKH | inactive |
| CLIVTLTHMS | 1.64 ± 0.062 |
| CLLRSSCGWMCLRTGTHCVV | 0.729 ± 0.25 |
| CLLTLMREVSCLLYFYHRAW | 1.56 ± 0.091 |

| Substance | amyloid nucleation score |
| --- | --- |
| CLMSVSAPFHVFALYIQLFC | inactive |
| CLNGPFVCLKYYVCFIAMMF | inactive |
| CLNNRSFNPKMQYPLVTMDH | inactive |
| CLSSSINMTMVYCCNSLMFG | 2.13 ± 0.069 |
| CLSTPMVMLICFM | 0.904 ± 0.29 |
| CLYSSCALGIARDWVVLL | inactive |
| CMGMCELFNTWCYEGKTPIS | inactive |
| CMVSSVKLNFIYIGYGDSGW | inactive |
| CMVSYASDTGGKESELACVV | inactive |
| CMYSFGEL | inactive |
| CNANGASAVKF | inactive |
| CNFLGSRLGYFGNYIFI | inactive |
| CNILIISTTLTPKITLTFYC | 1.64 ± 0.13 |
| CNISERENALETHTMNKFVV | inactive |
| CNLDLVANT | inactive |
| CNRWNHL | inactive |
| CNSGWGTYVV | inactive |
| CPCRHVFSRLSPF | inactive |
| CPNVYIAIPIFS | -0.423 ± 0.63 |
| CPRGPWFFTTTAVTSALNIS | -0.016 ± 0.86 |
| CPTASHNIALLTYDQTRTQY | inactive |
| CPVKHGGLHYSNQSYHSSGG | inactive |
| CPYSFEAAEYFRYGRVGYFT | inactive |

| Substance | amyloid nucleation score |
| --- | --- |
| CQCMSFIRTNSYKDFT | inactive |
| CQLAV | inactive |
| CQLGSSLGDDTEGSVAIPAV | inactive |
| CQRGTVADAPYLQRRLGLLY | inactive |
| CQSSDFTEFVRKVKRPPQAC | inactive |
| CRACGRWCNSSYIYIY | inactive |
| CRCFLPWGWLV | inactive |
| CRDKANVLAAVRRR | inactive |
| CRHINFMSIIFSFGDSSYRF | 2.2 ± 0.08 |
| CRHPTGKACELCELACFN | inactive |
| CRQSVCFGAVC | inactive |
| CRTQL | inactive |
| CRVFRNNDYSKVSFWLVSVF | inactive |
| CRVLDFSFSYFGMIFKLGTI | inactive |
| CRVWEDDFLSNRSGLVRHLT | inactive |
| CRYDKSSLDY | inactive |
| CSAIFCVVRGFRRVK | inactive |
| CSAWGLRKF | 0.673 ± 0.2 |
| CSGAIHYPYRLMRERNFTGR | inactive |
| CSGLSDLSVTLNCYVNCIFL | 2.48 ± 0.077 |
| CSGTSSFRDLTCGCRHCFVG | 1.3 ± 0.099 |
| CSNGFLFTVRVDTGFPTRI | inactive |
| CSPRTWCFGYNLFDM | 2.5 ± 0.074 |

| Substance | amyloid nucleation score |
| --- | --- |
| CSRFIREADTWRNRDYWWVF | -0.349 ± 1.2 |
| CSRPVVLIKGLLWAFRRWAY | inactive |
| CSVQVGITSCSNGGYSNVYA | inactive |
| CSYWTGYCCQIVGLKSFGLV | 2.4 ± 0.083 |
| CTGCTFRYEKKDYNLGCLCK | inactive |
| CTGLECIGTAYRQGGDRVLW | inactive |
| CTPFTLECW | -0.193 ± 1.1 |
| CTQGMVYIS | inactive |
| CVFCVNRTLLIVWIMVRY | inactive |
| CVFIFLKSCKYKVVKGINGV | inactive |
| CVHNLN | inactive |
| CVIITFESRILDELICDTVR | inactive |
| CVLCYRWSHMVLTPGMTGRD | inactive |
| CVMAMPSNIEV | inactive |
| CVMNRN | inactive |
| CVPCRQHTYSWDFVRVHLTV | inactive |
| CVRTGWIIMDSNKLD | inactive |
| CVRVSPRSDYNQMMVRMGQW | inactive |
| CVSFNLVSWVFNYCS | 2.55 ± 0.056 |
| CVVYLWWLVSASMLCSNWFG | inactive |
| CVWAVGVFFGFMIQRQDEER | inactive |
| CVWLVVTSDFLFRQLL | 1.73 ± 0.11 |
| CVWML | inactive |

| Substance | amyloid nucleation score |
| --- | --- |
| CVYYSRKG | 1.95 ± 0.073 |
| CWGST | inactive |
| CWLYFLS | inactive |
| CWNLISWSKEYA | inactive |
| CWYLVLSRLLCKNSRLHSNR | inactive |
| CYCPHPNGESFCFSVSWDTN | inactive |
| CYIMTYKSLNTF | inactive |
| CYLMYLSEILAYHVATWQAT | inactive |
| CYNGTLGCGYRVLIRVSGSW | inactive |
| CYNWHMFTEYCCSSSQARSM | 0.195 ± 0.57 |
| CYPFLWYCPNVCTVVSFDK | 2.46 ± 0.062 |
| CYTIRLWARLNLCRGIKS | -0.439 ± 1.1 |
| CYWIASRLFTKLSNYLSISG | inactive |
| CYYRCDCLCMTWWGHRVIVV | inactive |
| DAGLRLLYSSLTGRL | inactive |
| DAIPARVYYGCQFILCRNDL | 2.85 ± 0.084 |
| DALAVSINCSLFRCCSM | 3.3 ± 0.055 |
| DAYGLYYTSYYPGT | inactive |
| DCDQVPI | inactive |
| DCFNNWWVTHYQQINFPTVA | inactive |
| DCILGGSMMGRNTSMSAHDN | inactive |
| DCKMRIEICDMGLCTEHRKC | inactive |
| DCLASGMISFRVTMSNRYTI | 0.241 ± 0.59 |

| Substance | amyloid nucleation score |
| --- | --- |
| DDICIEKARDVVSMSPRSFR | inactive |
| DDMTYGSVCNKSGRTPLLPS | inactive |
| DDSMHDGLRVTRRVCKRGSF | inactive |
| DEEQF | -0.143 ± 0.34 |
| DEFVKYQP | inactive |
| DEVVWY | inactive |
| DFILVSLLREDTNVGTACRV | inactive |
| DFRLPNSPYAHCYLMHRLII | inactive |
| DFRSLWTRLSSHRSAFYLLS | inactive |
| DFSMSVNSA | inactive |
| DFTDYMPIMYTLHRVVIQMY | inactive |
| DFTYEL | inactive |
| DFWKL | inactive |
| DGCSRVMFNASGAMRRKVAN | inactive |
| DGEGN | inactive |
| DGKGPMVYSGMCCRTFRGLV | inactive |
| DGNKNYDVKFIRLVTNI | inactive |
| DHPYQRLIEWWLLCIYGSMY | inactive |
| DIFVDN | inactive |
| DIGMDGYRLLRRSQQRYFMN | inactive |
| DILTDQS | inactive |
| DISQGLRRNSSGYLVQRGYA | inactive |
| DIVLFLG | inactive |

| Substance | amyloid nucleation score |
| --- | --- |
| DIVVGAQRNELFS | inactive |
| DIYFCYNIDFLYRVTLRQLR | inactive |
| DKCRVCISFC | 1.14 ± 0.13 |
| DKNSWLYSASEYIWFFNTES | inactive |
| DKSDQSSRRFSGTRAYFSTM | inactive |
| DKSSSFLVRGLLLHTSRATQ | inactive |
| DKVTHQCSISMSWAWRVHVV | inactive |
| DLAWPRMPTIQARVEQYCLI | inactive |
| DLDECKFPINELSFHSSMGM | 1.83 ± 0.091 |
| DLLPLVTKYFSIGLH | inactive |
| DLRVPLNTFRNYHVSRELVR | inactive |
| DLSPRYL | inactive |
| DLSRDMTNVSCRKSGLWGSG | inactive |
| DLSVWRALYNGLLQRASH | inactive |
| DLVNVYVLPLVS | inactive |
| DLVRITMIVYYVAASHMVAS | inactive |
| DMACMVFGWE | inactive |
| DMATVIVSKLFTVVVWYLFW | inactive |
| DMCNYAFDGLCIYNYVNVVG | inactive |
| DMFVECRLISFNFTFIRVLI | inactive |
| DMGTYVSCRRIFKNGRYSGC | inactive |
| DMLHLWYLSVG | inactive |
| DMRVFANMWLVEIPVPS | inactive |
